Test results reported in US20250197513A1, “OSMR-SPECIFIC MONOCLONAL ANTIBODIES AND METHODS OF THEIR USE” (THE BOARD OF REGENTS OF THE UNIVERSITY OF TEXAS SYSTEM, priority 2021, published 2025).

Test system: HEYA8 ovarian cancer cells
Assay: In vivo efficacy and survival, intraperitoneal HEYA8-Luc+ ovarian cancer model
Set-up: species or system athymic nude mice
Details: survival monitored for 100 days; antibody 10 mg/kg twice a week for 5 weeks; OSM 250 ng/kg
Method: To test the in vivo efficacy of anti-OSMR antibodies and overall survival efficiency post-treatment, Heya8-Luc+ cells (3×10^4 cells/animal) were intraperitoneally injected into 4-6-week-old athymic female nude mice (Nu/Nu) (Envigo, Madison, WI, USA) with a 27-gauge needle. Mice were monitored for tumor growth by bio-luminescence imaging IVIS100 and after 7 days post injection, randomly divided into 7 mice per group (efficacy testing) and 10 mice per group (survival studies). Mice were treated intraperitoneally twice weekly with Control IgG.
All the antibody clones were given at a concentration 10 mg/kg b.w twice a week for 5 weeks. All mice were euthanized at the end of 5 weeks or when moribund. Tumors were harvested and weighed, total number of tumor nodules and metastasis to distant organs were counted and imaged using IVIS100. The tumors were excised and proceeded for IHC, Western blotting and qPCR. For survival studies, the treatments were stopped after 5 weeks, and survival progression was monitored for a total of 100 days.

B1: OSM: recombinant human oncostatin M, ligand of OSMR, given with control IgG to stimulate tumor growth (protein)
chain: AAIGSCSKEYRVLLGQLQKQTDLMQDTSRLLDPYIRIQGLDVPKLREHCRERPGAFPSEETLRGLGRRGFLQTLNATLGCVLHRLADLEQRLPKAQDLERSGLNIEDLEKLQMARPNILGLRNNIYCMAQLLDNSDTAEPTKAGRGASQPPTPTPASDAFQRKLEGCRFLHGYHRFMHSVGRVFSKWGESPNRSRR
- median survival: 29 days
